# Ends that are not written are not given here. * marks the point of attachment. Palmitoyl = CCCCCCCCCCCCCCCC(=O)*
# T1: human GIP receptor (human, UniProt P48546 22-466)
# T1 sequence (looked up): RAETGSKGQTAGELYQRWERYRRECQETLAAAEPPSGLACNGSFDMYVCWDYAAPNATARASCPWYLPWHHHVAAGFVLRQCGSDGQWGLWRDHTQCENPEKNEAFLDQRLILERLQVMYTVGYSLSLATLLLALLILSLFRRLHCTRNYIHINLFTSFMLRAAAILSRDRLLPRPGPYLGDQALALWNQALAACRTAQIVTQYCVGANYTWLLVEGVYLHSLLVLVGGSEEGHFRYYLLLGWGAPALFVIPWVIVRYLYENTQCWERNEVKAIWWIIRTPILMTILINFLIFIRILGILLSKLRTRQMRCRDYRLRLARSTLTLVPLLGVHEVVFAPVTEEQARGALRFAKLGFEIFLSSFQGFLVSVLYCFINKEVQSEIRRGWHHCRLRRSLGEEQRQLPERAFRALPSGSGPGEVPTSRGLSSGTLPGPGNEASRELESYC
# T2: human GLP-2 receptor (human, UniProt O95838 1-553)
# T2 sequence (looked up): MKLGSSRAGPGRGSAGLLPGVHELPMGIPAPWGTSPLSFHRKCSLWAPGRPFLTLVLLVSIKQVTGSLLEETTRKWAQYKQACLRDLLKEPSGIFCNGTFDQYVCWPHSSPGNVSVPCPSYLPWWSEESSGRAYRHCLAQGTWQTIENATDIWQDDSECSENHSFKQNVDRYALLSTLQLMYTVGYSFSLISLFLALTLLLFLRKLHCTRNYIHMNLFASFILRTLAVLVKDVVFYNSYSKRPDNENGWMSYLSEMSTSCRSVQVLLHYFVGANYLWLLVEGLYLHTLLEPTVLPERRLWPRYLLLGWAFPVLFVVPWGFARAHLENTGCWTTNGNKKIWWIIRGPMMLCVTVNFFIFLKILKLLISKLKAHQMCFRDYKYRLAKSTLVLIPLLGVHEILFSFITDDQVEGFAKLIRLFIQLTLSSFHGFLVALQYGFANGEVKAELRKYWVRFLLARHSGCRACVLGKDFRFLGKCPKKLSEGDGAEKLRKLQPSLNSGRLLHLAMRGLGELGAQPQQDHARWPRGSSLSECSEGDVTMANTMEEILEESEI
# B1: GIP-GLP-2 co-agonist 22 (peptide)
# peptide: HADGTFSSDYSTILDNLAARDFINWLIQTKITD
# modifications: not fully specified (residue 1, N-terminus); also: C16 acyl group on His 1 (attachment site not given here)
# Biological target: T1, human GIP receptor
# Experiment: cell-based or functional assay
EC50 (cAMP) [nM],"Emax (10 µM), % of native GIP [%]",logEC50 (cAMP),Binder
56,22,-7.25,HADGSFSDEMNTILDNLAARDFINWLIQTKITD (ligand) [human native GLP-2]

# Biological target: T2, human GLP-2 receptor
# Experiment: cell-based or functional assay
EC50 (cAMP) [nM],"Emax (10 µM), % of native GLP-2 [%]",fold (EC50 vs native GLP-2) [fold],logEC50 (cAMP),Binder
1.4,57,1.2,-8.85,HADGTFSSDYSTILDNLAARDFINWLIQTK(Palmitoyl)ITD [GIP-GLP-2 co-agonist 23]
6,75,5,-8.22,HADGTFSSDYSTILDNLAAK(Palmitoyl)DFINWLIQTKITD [GIP-GLP-2 co-agonist 21]
1.2,80,1,-8.92,HADGTFSSDYSTILDNLAAKDFINWLIQTKITD [GIP-GLP-2 co-agonist 20]
0.31,100,0.26,-9.51,HADGTFISDYSTILDKLAARDFINWLIQTKITK [GIP-GLP-2 co-agonist 26]
0.74,96,0.62,-9.13,HADGTFISDYSKILDNLAARDFINWLIQTKITK [GIP-GLP-2 co-agonist 24]
1.3,72,1.1,-8.88,B1
3.5,92,2.9,-8.46,HADGTFISDYSTIKDNLAARDFINWLIQTKITK [GIP-GLP-2 co-agonist 25]
0.56,100,0.47,-9.25,HADGTFISDYSTILDNLKARDFINWLIQTKITK [GIP-GLP-2 co-agonist 27]
1.2,112,0.98,-8.93,HADGTFISDYSTILDNLAAKDFINWLIQTKITK [GIP-GLP-2 co-agonist 28]

# Biological target: T1, human GIP receptor
# Experiment: cell-based or functional assay
# Remark: another data set of the same source
EC50 (cAMP) [nM],"Emax (10 µM), % of native GIP [%]",fold (EC50 vs native GIP) [fold],logEC50 (cAMP),Binder
0.76,81,8.5,-9.12,HADGTFSSDYSTILDNLAARDFINWLIQTK(Palmitoyl)ITD [GIP-GLP-2 co-agonist 23]
34,94,381,-7.47,HADGTFSSDYSTILDNLAAK(Palmitoyl)DFINWLIQTKITD [GIP-GLP-2 co-agonist 21]
0.59,98,6.6,-9.23,HADGTFSSDYSTILDNLAAKDFINWLIQTKITD [GIP-GLP-2 co-agonist 20]
0.03,100,0.34,-10.5,HADGTFISDYSTILDKLAARDFINWLIQTKITK [GIP-GLP-2 co-agonist 26]
0.15,100,1.7,-9.82,HADGTFISDYSKILDNLAARDFINWLIQTKITK [GIP-GLP-2 co-agonist 24]
0.41,100,4.6,-9.39,B1
0.44,92,4.9,-9.36,HADGTFISDYSTIKDNLAARDFINWLIQTKITK [GIP-GLP-2 co-agonist 25]
0.55,100,6.2,-9.26,HADGTFISDYSTILDNLKARDFINWLIQTKITK [GIP-GLP-2 co-agonist 27]
0.2,100,2.2,-9.7,HADGTFISDYSTILDNLAAKDFINWLIQTKITK [GIP-GLP-2 co-agonist 28]
56,22,–,-7.25,HADGSFSDEMNTILDNLAARDFINWLIQTKITD (ligand) [human native GLP-2]

# — patent US20200392198A1 (UNIVERSITY OF COPENHAGEN, published 2020)
